Among the data in patent US20030180744, “High affinity oligonucleotide ligands to growth factors” (GILEAD SCIENCES, INC., published 2003) are Kd values, retold here.

In this series the target is T1, KGF (hKGF) (Homo sapiens, UniProt P21781 P21781:32-194).
T1 sequence: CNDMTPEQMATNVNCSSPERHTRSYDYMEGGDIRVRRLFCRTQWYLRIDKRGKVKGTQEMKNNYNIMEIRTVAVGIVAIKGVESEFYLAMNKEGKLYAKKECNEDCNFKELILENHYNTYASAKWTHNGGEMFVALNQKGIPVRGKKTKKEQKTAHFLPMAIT
Nature of the series: filter; DPBS, 37 C. Conditions: tags: Upstate Biotechnology, label: 32P.

B1: 58F (ssRNA)
RNA: GGGAGGACGAUGCGGGAACUAAUGGCCGUGAUUAACCAAUGCAGGCUUCCUGCGCCAGACGACUCGCCCGA
modifications: 2'-F pyrimidines
The Kd is the concentration at which binding is half-saturated. Molecule B1 displayed a Kd of 2.52 nM.

B2: 47N (ssRNA)
RNA: GGGAGGACGAUGCGGGAAGGGUAGGAAGGUCAAGAGGAAACAGCGCUUCGGGGUGCAGACGACUCGCCCGA
modifications: 2'-NH2 pyrimidines
In the case of B2, binding was characterised by a dissociation constant (Kd) of 1.76 nM.

B3: 72N (ssRNA)
RNA: GGGAGGACGAUGCGGGAGGGGAAAAUGAGACCGACAGAUUGACGGAAGUACUGGGCAGACGACUCGCCCGA
modifications: 2'-NH2 pyrimidines
Take B3: the Kd worked out at 7.67 nM.

B4: 22N (ssRNA)
RNA: GGGAGGACGAUGCGGAUGGAGCUGAAAUCAGACGACUCGCCCGA
modifications: 2'-NH2 pyrimidines
With B4, the Kd was found to be 5.7 nM.

B5: 54F (ssRNA)
RNA: GGGAGGACGAUGCGGAAGAUCUCCCAACUGCUGUGGCUAAUAAUUCUCUCCGCGUCCCCAGACGACUCGCCCGA
modifications: 2'-F pyrimidines
In turn, B5 displayed a Kd of 1.23 nM.

B6: 9F (ssRNA)
RNA: GGGAGGACGAUGCGGAUAAUGGCUAGAACUAGCUCGCAUCUUGGUGUCCGGUGCCCAGACGACUCGCCCGA
modifications: 2'-F pyrimidines
Turning to B6, the Kd was 0.83 nM.

B7: 11N (ssRNA)
RNA: GGGAGGACGAUGCGGGGGCCGGAUUUGAACCGACGACUUCGGGUUAUGAGCCCGACGUCAGACGACUCGCCCGA
modifications: 2'-NH2 pyrimidines
For the molecule B7, the Kd was 1.28 nM.

B8: 54N (ssRNA)
RNA: GGGAGGACGAUGCGGAGAACCAACAGAGCCCCCUGGUGGUGGGGGAAGGAUUCUCAGACGACUCGCCCGA
modifications: 2'-NH2 pyrimidines
Consider B8, for which the Kd (dumbbell (predicted)) was 5.35 nM.

B9: 53F (ssRNA)
RNA: GGGAGGACGAUGCGGAUCAAAAGCACUCAUUCCCGUGCUCGCUUCAUUGGUCCCCCAGACGACUCGCCCGA
modifications: 2'-F pyrimidines
Consider B9, for which the dissociation constant (Kd) was 0.7 nM.

B10: 36N (ssRNA)
RNA: GGGAGGACGAUGCGGGAAGGGAACAGGAUAAGACAAGUCGAACAAAGCCGAGGUGCAGACGACUCGCCCGA
modifications: 2'-NH2 pyrimidines
In turn, B10 returned a Kd of 8.27 nM.

B11: 60F (ssRNA)
RNA: GGGAGGACGAUGCGGUGACAUGGAAUUUUCUACGGGCCCGAUCCUGCCAGCCGUGUGCAGACGACUCGCCCGA
modifications: 2'-F pyrimidines
Molecule B11 yielded a Kd of 2.1 nM.

B12: 3F (ssRNA)
RNA: GGGAGGACGAUGCGGAUCGUAAUCGCCACUACUACUUUCCGAACCCGCACGUGGCCAGACGACUCGCCCGA
modifications: 2'-F pyrimidines
On to B12, for which the Kd was found to be 4.47 nM.

B13: 25N (ssRNA)
RNA: GGGAGGACGAUGCGGGAGGGAAUGAGGAAACAACUAGCAGAUAACCGAGCUGGCCAGACGACUCGCCCGA
modifications: 2'-NH2 pyrimidines
With B13, the Kd was found to be 0.87 nM.

B14: 22F (ssRNA)
RNA: GGGAGGACGAUGCGGCCUGAAGUACAGGCUCUAAACUCCAAGCGCGACCGUCCGCCAGACGACUCGCCCGA
modifications: 2'-F pyrimidines
B14 returned a Kd of 2.75 nM.

B15: 8F (ssRNA)
RNA: GGGAGGACGAUGCGGUUUCGAAUAGGGCCAUUUCUCACUAGCUAUCCUACCCUGCCCAGACGACUCGCCCGA
modifications: 2'-F pyrimidines
As for B15, the Kd turned out to be 2.63 nM.

B16: 5F (ssRNA)
RNA: GGGAGGACGAUGCGGCGUCCCGAGUCACGCUGUCCUGAUAACCUUCUCUGUGCCCAGACGACUCGCCCGA
modifications: 2'-F pyrimidines
B16 gave a Kd of 2.53 nM.

B17: 71N (ssRNA)
RNA: GGGAGGACGAUGCGGAAACGGCGUGGCAAAAGUGAGGGGGUAGGAUGUACCAUGGGUCAGACGACUCGCCCGA
modifications: 2'-NH2 pyrimidines
B17 came in with a Kd of 3.52 nM.

B18: 60N (ssRNA)
RNA: GGGAGGACGAUGCGGCCCCUUAGCUCAGUGGUUAGAGCAGACGACUCGCCCGA
modifications: 2'-NH2 pyrimidines
For the molecule B18, the Kd amounted to 7.38 nM.

B19: 16N (ssRNA)
RNA: GGGAGGACGAUGCGGAAGUUCUAACAAGUUAGUGGAAGGUUCCACUUGAAUGUACAGACGACUCGCCCGA
modifications: 2'-NH2 pyrimidines
B19 returned a Kd of 1.4 nM.

B20: 10N (ssRNA)
RNA: GGGAGGACGAUGCGGUAGCUGCUGUCAUGCAAGACACUAGAAGAUUAAGAUGGGGCAGACGACUCGCCCGA
modifications: 2'-NH2 pyrimidines
With B20, the Kd amounted to 1.1 nM.

B21: 69N (ssRNA)
RNA: GGGAGGACGAUGCGGGUAGGGAGUAGGACAGACAUAACAGUGCAACCAUCGUGGCCAGACGACUCGCCCGA
modifications: 2'-NH2 pyrimidines
Take B21: binding was characterised by a dissociation constant (Kd) of 15.2 nM.

B22: 2F (ssRNA)
RNA: GGGAGGACGAUGCGGGCAUUCGUCAAUACCUUGUUUUAUUCCUUUUCUAGCGGCCCAGACGACUCGCCCGA
modifications: 2'-F pyrimidines
B22 registered a Kd of 1.77 nM.

B23: 7F (ssRNA)
RNA: GGGAGGACGAUGCGGCGGGUACUCUUCGCCAGCUCCUCCAAGCGCGACCUGUGCCCAGACGACUCGCCCGA
modifications: 2'-F pyrimidines
B23: the Kd amounted to 3.69 nM.

B24: 48N (ssRNA)
RNA: GGGAGGACGAUGCGGGGCAAAGGAAGUUGGAAUCGGGACUAAGUAGUGUGUGGCCAGACGACUCGCCCGA
modifications: 2'-NH2 pyrimidines
B24: the dissociation constant (Kd) worked out at 1.34 nM.

B25: 11F (ssRNA)
RNA: GGGAGGACGAUGCGGUGAUGGCGACCAGUCAAACCGGUGCUUUUACUCCCCCGCCAGACGACUCGCCCGA
modifications: 2'-F pyrimidines
The molecule B25 came in with a Kd of 3.74 nM.

B26: 24N (ssRNA)
RNA: GGGAGGACGAUGCGGGUGGGAAGAUGAGCCGGUCGGCAGUAAUGUGACACUGCGGCAGACGACUCGCCCGA
modifications: 2'-NH2 pyrimidines
For the molecule B26, the affinity, expressed as Kd, was 1.16 nM.

B27: 57F (ssRNA)
RNA: GGGAGGACGAUGCGGUGACUAUCUGGCUCGAUCCAAUCACCCGAGCCCACCGCGCCAGACGACUCGCCCGA
modifications: 2'-F pyrimidines
For B27, the Kd came to 1.2 nM.

B28: 34N (ssRNA)
RNA: GGGAGGACGAUGCGGGCGGGAAGAGCUAAUGGAAGUGGAAUCAGUCACAGUGCGGCAGACGACUCGCCCGA
modifications: 2'-NH2 pyrimidines
B28 displayed a dissociation constant Kd of 0.8 nM.

B29: 28N (ssRNA)
RNA: GGGAGGACGAUGCGGUUGCUCUACAAUGACGCGGUGACUCCGCAGUUCUUGGACACAGACGACUCGCCCGA
modifications: 2'-NH2 pyrimidines
Turning to B29, the Kd was 2.54 nM.

B30: 55F (ssRNA)
RNA: GGGAGGACGAUGCGGUCCGUCAUAACGGCCAUAAACUGCGAAUACUCCCUGGCCCAGACGACUCGCCCGA
modifications: 2'-F pyrimidines
On to B30, for which the dissociation constant (Kd) came to 2.52 nM.

B31: 35N (ssRNA)
RNA: GGGAGGACGAUGCGGGCUUAGGGAAAUGGUUCUGAGGUGGUCAGACGACUCGCCCGA
modifications: 2'-NH2 pyrimidines
For the molecule B31, the Kd was 2.32 nM.

B32: 55N (ssRNA)
RNA: GGGAGGACGAUGCGGACACACAAGUGAAGGUCAGACGCGAAUUACGUGGGUGGGCAGACGACUCGCCCGA
modifications: 2'-NH2 pyrimidines
For B32, binding was characterised by a dissociation constant (Kd) of 1.25 nM.
